Reference: patent publication US20020128175A1

Biological target: low density lipoprotein (LDL) from human plasma (human) (UniProt P04114)
Assay: agarose gel, stained bands excised and counted with 125I-labeled peptide

stoichiometry (molecules of peptide per LDL) (molecules of peptide per LDL): 30
B1: Ac-hE18A-NH2 (end protected analog of hApoE[141-150]-18A) (peptide)
peptide: Ac-LRKLRKRLLRDWLKAFYDKVAEKLKEAF-NH2
modifications: also: 125I-labelled where stoichiometry was determined
